From PMC10531723

What was measured:
[1] = target: Aβ42-CFP (human Aβ(1-42) fused to CFP) (human) (UniProt P05067); assay: FRET or BRET; acceptor photobleaching FRET (AB FRET) by confocal microscopy (Leica TCS SP5) of yeast cells co-expressing a CFP fusion (donor) and a YFP fusion (acceptor); acceptor bleached at 514 nm, 100% intensity; cells washed, air-dried on polylysine slides and mounted in …; three independent transformants, at least 100 cells each
[2] = target: IAPP-CFP (human IAPP fused in frame with cyan fluorescent protein) (human); assay: as above
Sequence of IAPP-CFP (human IAPP fused in frame with cyan fluorescent protein) (human) (P10997 8-37): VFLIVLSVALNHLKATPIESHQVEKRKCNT

## IAPP-YFP (human IAPP fused in frame with yellow fluorescent protein) (domain or fragment)
[1]
  FRET efficiency: 20%
[2]
  FRET efficiency: 31%
